Publication PMC9949351, “Chromatin localization of nucleophosmin organizes ribosome biogenesis” (Molecular cell, 2022)

B1: Fkbp41 (natural protein, S. pombe, UniProt Q10175 1-362, looked up)
chain: MSKEETLYSVKVDQERVPLFDEDFYKGFRSELSVRFTMAALDPRAKSNDAVTVNVITRLEHPEEDGEESDEELFQEEKFTLCTLKKGSVYQQPIDIIFSPGEEVFFERVGGDIPVYLSGTCIITNIPEEEDSSDLENDFLYGADEFSSDEEEMDDISVTSSEEEEEENGARIEELNSDEEDAEQAEEEILEKPVPKDEVAEKHSKDKLKKEEKEKKTAVDVSDSVNGKKRKTEPAGEGEQTEKKSKSTKTYPKQVLEGNVTVQDKVKGDGPAAKRKKRVSMRYIGRLTNGKVFDKNITGKPFTFNLGLEEVIKGWDVGIVGMQVGGERTIHIPAAMAYGSKRLPGIPANSDLVFDVKLLAVN
notes: Fkbp41, S. pombe, SPAC27F1.06c; cloned into a pETDuet vector behind 6xHis-SUMO and an HRV-3C site; also called nucleophosmin-like protein Fkbp41; SPAC27F1.06c; source: E. coli Rosetta (DE3), purified (Ni Sepharose, tag removed, Q ion exchange, at times SEC); not shown: 6xHis, N-terminal, cleaved; SUMO, N-terminal, cleaved

How the values were obtained:
[1] = molecular target: the molecule itself; assay: mass photometry + SEC; purified Fkbp39 and Fkbp41, oligomeric state; SEC on Superdex 200 Increase 10/300 GL
Fkbp41 = molecular target: B1; assay: pull-down; 'in vitro co-immunoprecipitation': 12 μg each of 6xHis-SUMO-Fkbp39 and Fkbp41, 45 min at 4 °C in 30 mM HEPES-Na pH 7.5-8, 150 mM NaCl, 20 mM imidazole; Ni Sepharose resin, imidazole elution, SDS-PAGE; details: both partners purified

Row | Binder | stoichiometry N [1] | binding result (Fkbp41)
1 | B1 | 2 | –
2 | Fkbp39 (natural protein, S. pombe, UniProt O74191 1-361, looked up, Fkbp39, S. pombe, SPBC1347.02; cloned into a pETDuet vector behind 6xHis-SUMO and an HRV-3C site; also called nucleophosmin-like protein Fkbp39; SPBC1347.02; source: E. coli Rosetta, purified (Ni Sepharose, tag removed, SP ion exchange, at times SEC); not shown: 6xHis, N-terminal, cleaved; SUMO, N-terminal, cleaved) MSLPIAVYSLSVKGKDVPAVEESTDASIHLTMASIDAGEKSNKPTTLLVKVRPRIPVEDEDDEELDEQMQELLEESQREFVLCTLKPGSLYQQPLNLTITPGDEVFFSASGDATIHLSGNFLVDEEDEEEEESDEDYDLSPTEEDLVETVSGDEESEEESESEDNSASEEDELDSAPAKKAQVKKKRTKDESEQEEAASPKKNNTKKQKVEGTPVKEKKVAFAEKLEQGPTGPAAKKEKQQASSNAPSSPKTRTLKGGVVVTDVKTGSGASATNGKKVEMRYIGKLENGKVFDKNTKGKPFAFILGRGEVIRGWDVGVAGMQEGGERKITIPAPMAYGNQSIPGIPKNSTLVFEVKLVRVH | 5 | –
3 | 6xHis-SUMO-Fkbp39 (natural protein, S. pombe, UniProt O74191 1-361, looked up, Fkbp39, S. pombe, SPBC1347.02; pETDuet construct with 6xHis-SUMO and an HRV-3C site, tag not removed; source: E. coli Rosetta (Fkbp39 constructs), purified; used as 6xHis-SUMO-Fkbp39; not shown: 6xHis, N-terminal, kept; SUMO, N-terminal, kept) MSLPIAVYSLSVKGKDVPAVEESTDASIHLTMASIDAGEKSNKPTTLLVKVRPRIPVEDEDDEELDEQMQELLEESQREFVLCTLKPGSLYQQPLNLTITPGDEVFFSASGDATIHLSGNFLVDEEDEEEEESDEDYDLSPTEEDLVETVSGDEESEEESESEDNSASEEDELDSAPAKKAQVKKKRTKDESEQEEAASPKKNNTKKQKVEGTPVKEKKVAFAEKLEQGPTGPAAKKEKQQASSNAPSSPKTRTLKGGVVVTDVKTGSGASATNGKKVEMRYIGKLENGKVFDKNTKGKPFAFILGRGEVIRGWDVGVAGMQEGGERKITIPAPMAYGNQSIPGIPKNSTLVFEVKLVRVH | – | binds
